Where a chain is given by its changes, count along the chain named. Numbers in names are those of the source.
B1: TmCdsA S200C/S223C double-cysteine mutant (enzyme, Thermotoga maritima, UniProt Q9X1B7 1-270, looked up)
chain: MDDLKTRVITASVVAPFVVLCFVSYESLIGLVSAILILAGYELITLEMKERDARFFYVILLALYPVLYGLVFEEPTQPLSILFITGVVFSLITDKDPSQVFKTVAAFSIALIYVTFFLSFFLPIYRDFGAANALLVLTSTWVFDSFAYFTGLKFGRTRISPRYSPRKSLEGVIGGFLGVVIYTFLYRLVVNDLLSVNVICFRTFLPFAATVAIMDTFGDIFECALKRHYGVKDSGKTLPGHGGMLDRIDGLLFVAPVSYIVFKILEGVVR
modifications: mercury labels (CH3HgCl) bound to the endogenous and engineered Cys residues in the crystal
B2: TmCdsA S200C/S258C double-cysteine mutant (enzyme, Thermotoga maritima, UniProt Q9X1B7 1-270, looked up)
chain: B1 chain with C223S, S258C

Target: the molecule itself
Test: crystal structure

| Protein | binding result |
| --- | --- |
| B1 | binds |
| B2 | binds |
